Data published in patent publication US9969998B2, “Compositions of adenosine deaminase-2 (ADA2), variants thereof and methods of using same” (Halozyme, Inc., priority 2014, dated 2018).
Positions count from the first letter of the chain named. In names and notes the source's numbering stands. Entries after “also recorded” stand apart in the source; their conditions may differ. Where two headings read alike, the source gives them in different places.

Assays:
[1] = 24 hours, 37° C.
[2] = adenosine deaminase activity; listed as wildtype ADA2; cited from earlier work
[3] = cited from earlier work
[4] = Daddona and Kelley (1981); cited from earlier work
[5] = test system: mixture of NK and T (NK/T) cells; experiment: T-cell or NK/T cell proliferation assay in the presence of adenosine; format: cell-based
Text: Reversal of adenosine-mediated immunosuppression by any ADA2 provided herein, including wildtype and variants, conjugates and other modified forms thereof, and combination therapy using any ADA2 provided herein and other agents, can be examined in vitro, for example, by performing proliferation assays. Such assays include, but are not limited to T-cell proliferation assays or a mixture of NK and T (NK/T) cell proliferation assays, in the presence of adenosine and/or any ADA2 provided herein and/or any other combination therapy agents. For example, the immunosuppressive effect of adenosine on various immune cells, such as lymphocytes, natural killer (NK) cells, polymorphonuclear granulocytes, and phagocytic cells such as tissue macrophages, can be assessed by proliferation assays using the immune cells or mixtures thereof, such as the mixture of NK and T (NK/T) cells prepared from peripheral blood mononuclear cells (PBMC). The effect of any ADA2 provided herein and any other combination therapy agents provided herein, can be assessed by comparing the results of such proliferation assays in the presence of adenosine, with or without the addition of any ADA2 provided herein and/or any other combination therapy agents provided herein, including immune checkpoint inhibitors. Combination therapy agents are described in Section H.4 below. […]

[6] = In vivo pharmacokinetics of PEGylated rHuADA2 combination variants (Example 14); settings: BALB/c mice, 3 mg/kg intravenous
Text: Twenty-seven (27) male BALB/c mice were divided into three (3) dosing groups, and were further divided into three (3) groups each for sampling of blood at different time points. Thus, the mice were randomized into nine (9) groups total. Mice were weighed prior to the start of the study, and randomized into the 9 groups based upon their body weights. In each sampling group, three groups of (3) mice were used for dosing each test article to prevent oversampling of the blood from the animals. For measurement of baseline ADA2 levels, a blood sample was obtained from 12 randomly chosen mice and plasma was prepared using the anti-coagulant potassium (K3) ethylene diamine tetraacetic acid (K3-EDTA). All blood was collected by submandibular venipuncture.
PEGylated ADA2 variants were prepared using the PEGylation method as described in Example 8.A, with minor modifications. Briefly, all ADA2 variants at 10 mg/mL were PEGylated with linear PEG-20K (JenKem Technology, Plano, Tex.; Cat. No. M-SCM-20K) at 1:15 molar ratio and incubated first at 37° for 30 min, then at 4° C. for 16 hours.
Approximately 200 μL of whole blood was collected at designated sampling time points from appropriate groups of mice as indicated below in Table 38 and kept on ice until plasma preparation. The initial two (2) blood samples were collected by submandibular venipuncture. The final sample was collected from a terminal bleed. Plasma was prepared by centrifuging the blood (500×g for 5 min at 4° C.), transferring the plasma to a fresh tube and immediately freezing at −80° C. until the adenosine deaminase activity assay. Adenosine deaminase activity was determined as described in Example 4.
Non-compartmental analysis (NCA) was conducted using the Phoenix WinNonlin version 6.3 (Pharsight Corp, St. Louis, Mo. 63101). The half-life, or time taken for the activity of ADA2 proteins to be reduced by half, was calculated. Also, total exposure was measured by calculating the Area Under the Concentration-time Curve (AUC). The AUC and half-life values were obtained from the unweighted average from each test article group. The following options in the Phoenix WinNonlin program were used for data analysis: (i) linear trapezoidal/linear interpolation option for AUC; (ii) best-fit slope selection option for terminal slope; and (iii) uniform weighting of the data.

[7] = test system: CT26 murine colon cancer tumor; experiment: Tumor growth inhibition, CT26 syngeneic tumor model; format: in vivo, BALB/c mice
Method: Forty-four (44) male BALB/c mice were inoculated subcutaneously with 5×10^6 murine colon cancer tumor cells (CT26, ATCC CRL-2638) in 0.1 mL injection volume per animal. Tumor volume was determined using digital calipers by caliper measurement of the length (L) and width (W) of the solid tumor masses. Tumor volume (TV) was calculated as: (L×W^2)/2. Tumors were allowed to grow and tumor bearing mice were staged until when the tumors were palpable and measured to be about 50-100 mm^3.
PEGylated rHuADA2-K374D (K371D by mature numbering) was prepared as described in Example 8.A, with minor modifications to generate a preparation in which approximately 100% of the molecules were PEGylated as assessed by SDS-PAGE.
For treatment, animals were randomized into four groups (n=8/group). CT26 tumor bearing mice were then injected intravenously (IV) every other day, at 3 mg/kg body weight, 10 mg/kg body weight or 30 mg/kg body weight doses of PEG-K374D (PEG-K371D by mature numbering) or vehicle control (buffer only) every other day. Tumor volume was measured at day 0 and 8 using caliper measurement as described above. […] One mouse from the vehicle group was excluded due to significant tumor growth inhibition.

[8] = In vivo pharmacokinetics of rHuADA2, variants and PEGylated forms (Example 9); settings: male BALB/c mice, 7.5 mg/kg intravenous
Text: Fifty four (54) male BALB/c mice were divided into six (6) dosing groups, and were further divided into three (3) groups each for sampling of blood at different time points. Thus, the mice were randomized into eighteen (18) groups total. Mice were weighed prior to the start of the study, and randomized into the 18 groups based upon their body weights. In each sampling group, three groups of (3) mice were used for dosing each test article to prevent oversampling of the blood from the animals. For measurement of baseline ADA2 levels, a blood sample was obtained from 12 randomly chosen mice and plasma was prepared using the anti-coagulant potassium (K3) ethylene diamine tetraacetic acid (K3-EDTA). All blood was collected by submandibular venipuncture.
Each mouse was injected by intravenous tail-vein injection with a 7.5 mg/kg dose of one of six ADA2 test article as set forth in Table 24, i.e. rHuADA2-K374D (K371D by mature numbering), PEG-rHuADA2-K374D (PEG-K371D by mature numbering), rHuADA2-R23E (R20E by mature numbering), PEG-rHuADA2-R23E (PEG-R20E by mature numbering), or WT ADA2 and PEG-WT ADA2.
Blood was collected at designated sampling time points from appropriate groups of mice as indicated below in Table 24 and kept on ice until plasma preparation. Plasma was prepared by centrifuging the blood (500×g for 5 min at 4° C.), transferring the plasma to a fresh tube and immediately freezing at −80° C. until the adenosine deaminase activity assay. Adenosine deaminase activity was determined as described in Example 4. The half-life, or time taken for the activity of ADA2 proteins to be reduced by half, was calculated. Also, total exposure was measured by calculating the Area Under the Concentration-time Curve (AUC).

[9] = vs non-PEGylated WT rHuADA2 of Example 9
[10] = day 8; 3 mg/kg IV every other day
[11] = day 8; 10 mg/kg IV every other day
[12] = day 8; 30 mg/kg IV every other day

B1: ADA2: wild-type human adenosine deaminase 2, mature form SEQ ID NO:5, homodimer (protein, listed as Homo sapiens)
chain: IDETRAHLLLKEKMMRLGGRLVLNTKEELANERLMTLKIAEMKEAMRTLIFPPSMHFFQAKHLIERSQVFNILRMMPKGAALHLHDIGIVTMDWLVRNVTYRPHCHICFTPRGIMQFRFAHPTPRPSEKCSKWILLEDYRKRVQNVTEFDDSLLRNFTLVTQHPEVIYTNQNVVWSKFETIFFTISGLIHYAPVFRDYVFRSMQEFYEDNVLYMEIRARLLPVYELSGEHHDEEWSVKTYQEVAQKFVETHPEFIGIKIIYSDHRSKDVAVIAESIRMAMGLRIKFPTVVAGFDLVGHEDTGHSLHDYKEALMIPAKDGVKLPYFFHAGETDWQGTSIDRNILDALMLNTTRIGHGFALSKHPAVRTYSWKKDIPIEVCPISNQVLKLVSDLRNHPVATLMATGHPMVISSDDPAMFGAKGLSYDFYEVFMGIGGMKADLRTLKQLAMNSIKYSTLLESEKNTFMEIWKKRWDKFIADVATK
modifications: ADA2 mature protein
[1]
  activity retained in PBS/BSA control: no change in activity
[1]; mouse plasma
  activity retained after treatment with plasma: about 65%
[2]
  pH optimum: ~6.5
[3]; for adenosine, wild-type enzyme in humans, read-out: Km
  Km: ~2000 µM
[3]; read-out: Km for adenosine
  Km: ~2250 µM
[4]
  stability at higher temperature: substantially more stable at higher temperature compared to ADA1
[5]
  reversal of adenosine-mediated immunosuppression: reverse the adenosine-dependent immunosuppression; also recorded: reversed

B2: PEG-K374D: rHuADA2-K374D (SEQ ID NO:20) PEGylated on surface exposed lysines with linear PEG-20K (conjugate)
chain: B1 chain with K371D
modifications: linear PEG-20K on surface lysines; human ADA2 K371D, mature numbering
[6]; plasma ADA activity
  AUC (total exposure): 4,662 (U * h)/mL
  Half-life slow (t1/2): 2,256 min
[6]; [9]
  Percent increase in AUC compared to WT ADA2: 14,177%
  Percent increase in t1/2 compared to WT ADA2: 3,269%
[7]; 3 mg/kg IV every other day; day 8
  Average Tumor Volume: 257.72 mm^3
[7]; 3 mg/kg IV every other day; day 8; vs vehicle
  Tumor Growth Inhibition: 50%
[7]; 10 mg/kg IV every other day; day 8
  Average Tumor Volume: 207.84 mm^3
[7]; 10 mg/kg IV every other day; day 8; vs vehicle
  Tumor Growth Inhibition: 63%
[7]; 30 mg/kg IV every other day; day 8
  Average Tumor Volume: 187.32 mm^3
[7]; 30 mg/kg IV every other day; day 8; vs vehicle
  Tumor Growth Inhibition: 68%
[7]; [10]
  Average Tumor Volume: 257.72 mm^3
  tumor growth inhibition (TGI): 50%
[7]; [11]
  Average Tumor Volume: 207.84 mm^3
  tumor growth inhibition (TGI): 63%
[7]; [12]
  Average Tumor Volume: 187.32 mm^3
  tumor growth inhibition (TGI): 68%

B3: WT ADA2: wild type recombinant human adenosine deaminase 2 with FLAG tag, mature ADA2 SEQ ID NO:5 (protein, listed as Homo sapiens)
chain: B1 chain
modifications: FLAG tag; ADA2 mature protein
[8]
  Half life slow (t1/2): 1.15 h

B4: R23E: ADA2 variant SEQ ID NO:30 (protein)
chain: B1 chain with R20E
modifications: human ADA2 R20E, mature numbering
[8]
  Half life slow (t1/2): 2.52 h
[8]; vs non-PEGylated WT
  Percent increase in AUC compared to WT ADA2: 19%
  Percent increase in t1/2 compared to WT ADA2: 119%
